Data: publication PMC4395295

Tests used:
[1] = biological target: ZEN-4 1-585mAG (C. elegans)
[2] = biological target: VenusZ435-555 (ZEN-4 neck and coiled coil with the motor domain replaced by Venus) (C. elegans); assay: SDS-PAGE and densitometry of the purified complex; band intensities of the ZEN-4 and CYK-4 fragments, staining assumed proportional to molecular weight
VenusZ435-555 (ZEN-4 neck and coiled coil with the motor domain replaced by Venus) (C. elegans), sequence (main, as listed by the source): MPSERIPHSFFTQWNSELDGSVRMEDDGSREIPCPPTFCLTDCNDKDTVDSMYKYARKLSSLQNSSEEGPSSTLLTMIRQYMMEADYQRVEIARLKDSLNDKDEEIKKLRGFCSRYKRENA

CYK-4 1-120 (domain or fragment)
microtubule gliding velocity of surface-immobilised Z585mAG co-purified with C120 (180 nm/s for Z585mAG alone) [1]: 30 nm/s
stoichiometry N (C120 per ZEN-4 fragment) [2]: 0.94
